{"source": "patent US20230099646A1", "about": "(published 2023)", "binders": {"B1": {"name": "CD19_12.18 antibody (scFv, V domains shown)", "VH": "AVTLDESGGGLQTPGGALSLVCKASGFTFSSYDMGWVRQAPGKGLEFVAGIDDDGRYTSYGSAVDGRATISRDNGQSTVRLQLNNLRAEDTATYYCTRGNAGWIDAWGHGTEVIVSS", "VL": "LTQPSSVSANPGETVKITCSGGYSSYYGWYQQKSPGSAPVTLIYESNKRPSDIPSRFSGSASGSTATLTITGVQVEDEAVYYCGGWDSTHAGIFGAGTTLTVLG", "notes": "Chicken-derived antibody, tested as an Fc fusion (Anti-CD19 scFv-Fc) made in FreeStyle 293F cells; also called CD19_1218-Fc; Anti-CD19 scFv-Fc"}}, "biological_target": "T1, cynomolgus monkey CD19 (cCD19) (cynomolgus monkey)", "T1 construct": "Expressed on transiently transfected 293 cells", "T1 chain": "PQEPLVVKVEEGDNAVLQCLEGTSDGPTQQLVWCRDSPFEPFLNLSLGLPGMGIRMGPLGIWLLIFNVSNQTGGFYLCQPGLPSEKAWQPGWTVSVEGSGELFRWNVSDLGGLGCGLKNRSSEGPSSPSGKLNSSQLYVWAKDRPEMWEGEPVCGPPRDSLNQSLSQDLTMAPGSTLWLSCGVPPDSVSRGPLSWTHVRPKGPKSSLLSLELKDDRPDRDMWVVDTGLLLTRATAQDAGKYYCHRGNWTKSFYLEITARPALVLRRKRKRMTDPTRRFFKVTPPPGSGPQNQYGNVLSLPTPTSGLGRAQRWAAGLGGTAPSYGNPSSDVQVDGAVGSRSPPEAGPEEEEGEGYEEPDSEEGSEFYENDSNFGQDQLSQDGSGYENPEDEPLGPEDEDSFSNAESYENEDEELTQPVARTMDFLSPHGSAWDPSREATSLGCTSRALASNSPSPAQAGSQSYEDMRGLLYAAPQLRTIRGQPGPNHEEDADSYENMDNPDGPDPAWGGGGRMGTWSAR", "assay": "flow cytometry on transfected 293 cells", "experimental": "In brief, first, the expression of CD19 protein was identified.\nBinding to GFP-positive cells was analyzed on the basis of mean fluorescence intensity (MFI).", "data": [{"binder": "B1", "values": [{"measurement": "binding result", "result": "no binding"}]}]}
